Measurements as given in article PMC11346345 (Cell reports, 2024).

Target: recombinant GP38 of CCHFV Afg09-2990 (Crimean-Congo hemorrhagic fever virus, …, UniProt E5FEZ4, strain)
Assay: SPR

B1: ADI-58048 IgG (antibody, V domains shown)
VH: QLQLQESGPGLVKPSETLSLTCTVSGGSITTSHYYWGWIRQPPGKGLEWVGSMYYSGGIYYNPSLKGRVTISVDTSKNQFSLKLSSVTAADTAVYYCALADAPDDAFDIWGQGTMVTVSS
VL: DIQMTQSPSSLSAFVGDRVTITCRASQSISSYLNWYQQKPGKAPKLLIYAASTLQSGVPSRFSGSGSGTDFTLTISSLQSEDFATYYCQESYSIPFTFGPGTKVDIK
- fold reduction in binding: ~27 fold
